Experimental data published in publication PMC9482650, “Quantitative fragmentomics allow affinity mapping of interactomes” (Nature Communications, 2022).

Columns and labels:
Assay in all cases: holdup assay
Design in all cases: key: below the threshold = too weak to quantify, mostly under pKd 3.1 to 4
Details in all cases: plain residues with an end cap or a label only (N-terminal biotin on a linker: ado-ado)
[1] = biological target: T1, MPDZ_12, O75970
T1 sequence (O75970 1857-1958, limits assumed, looked up): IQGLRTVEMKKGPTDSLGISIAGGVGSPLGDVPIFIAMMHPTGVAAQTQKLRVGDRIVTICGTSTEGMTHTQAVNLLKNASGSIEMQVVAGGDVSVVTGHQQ

[2] = biological target: T2, MPP7, Q5T2T1
T2 sequence (Q5T2T1 134-230, limits assumed, looked up): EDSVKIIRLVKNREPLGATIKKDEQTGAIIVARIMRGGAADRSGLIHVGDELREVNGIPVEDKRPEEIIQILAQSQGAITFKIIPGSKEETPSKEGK

[3] = biological target: T3, MPP2, Q14168
T3 sequence (Q14168 180-250, limits assumed, looked up): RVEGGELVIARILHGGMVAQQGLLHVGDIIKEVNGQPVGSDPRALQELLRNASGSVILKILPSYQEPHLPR

[4] = biological target: HTRA2, O43464
Chain of HTRA2, O43464 (O43464 355-458): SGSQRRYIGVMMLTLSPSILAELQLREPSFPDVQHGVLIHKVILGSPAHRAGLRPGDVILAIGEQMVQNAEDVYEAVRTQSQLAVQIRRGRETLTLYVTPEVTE

[5] = biological target: TJP1_2, Q07157
Chain of TJP1_2, Q07157 (Q07157 181-274): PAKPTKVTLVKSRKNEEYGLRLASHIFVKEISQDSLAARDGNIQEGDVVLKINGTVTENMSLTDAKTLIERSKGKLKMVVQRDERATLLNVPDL

[6] = biological target: SCRIB_1, Q14160
Chain of SCRIB_1, Q14160 (Q14160 718-814): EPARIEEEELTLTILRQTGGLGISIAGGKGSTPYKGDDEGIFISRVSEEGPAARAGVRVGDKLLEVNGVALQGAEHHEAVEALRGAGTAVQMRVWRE

[7] = biological target: LIMK2, P53671
Chain of LIMK2, P53671 (P53671 143-248): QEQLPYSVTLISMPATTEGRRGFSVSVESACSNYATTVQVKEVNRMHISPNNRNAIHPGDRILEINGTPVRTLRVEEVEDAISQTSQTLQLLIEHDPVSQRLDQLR

[8] = biological target: T4, NHERF3_3, Q5T2W1
T4 sequence (Q5T2W1 238-333, limits assumed, looked up): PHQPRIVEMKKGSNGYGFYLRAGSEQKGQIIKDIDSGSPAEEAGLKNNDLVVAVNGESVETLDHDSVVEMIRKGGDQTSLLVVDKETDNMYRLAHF

[9] = biological target: T5, PDZD7_3, Q9H5P4
T5 sequence (Q9H5P4 857-944, limits assumed, looked up): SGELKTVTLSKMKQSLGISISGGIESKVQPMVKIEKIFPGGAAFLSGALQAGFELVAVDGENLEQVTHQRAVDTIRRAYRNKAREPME

[10] = biological target: T6, LNX2_2, Q8N448
T6 sequence (Q8N448 334-432, limits assumed, looked up): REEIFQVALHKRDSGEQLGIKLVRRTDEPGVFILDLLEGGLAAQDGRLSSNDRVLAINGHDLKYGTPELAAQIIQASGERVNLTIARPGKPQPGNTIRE

[11] = biological target: Inadl_3, Q8NI35
Chain of Inadl_3, Q8NI35 (Q8NI35 359-469): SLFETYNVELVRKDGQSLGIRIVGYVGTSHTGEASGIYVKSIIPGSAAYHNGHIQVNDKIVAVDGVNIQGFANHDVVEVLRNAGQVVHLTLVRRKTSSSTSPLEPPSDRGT

[12] = biological target: GOPC, Q9HD26
[13] = biological target: T7, APBA1_2, Q02410
T7 sequence (Q02410 742-832, limits assumed, looked up): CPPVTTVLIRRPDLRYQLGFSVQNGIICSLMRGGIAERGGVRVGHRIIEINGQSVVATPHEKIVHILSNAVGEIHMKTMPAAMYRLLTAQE

[14] = biological target: ARHGEF12, Q9NZN5-2
Chain of ARHGEF12, Q9NZN5-2 (Q9NZN5 other isoform, or with tags, fused parts or gaps): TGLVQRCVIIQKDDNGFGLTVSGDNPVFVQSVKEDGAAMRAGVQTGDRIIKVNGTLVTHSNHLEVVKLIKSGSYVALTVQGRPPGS

[15] = biological target: T8, DVL3, Q92997
T8 sequence (Q92997 244-331, limits assumed, looked up): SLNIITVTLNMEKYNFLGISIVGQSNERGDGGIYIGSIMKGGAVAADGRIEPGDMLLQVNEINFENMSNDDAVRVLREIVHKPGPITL

[16] = biological target: T9, HTRA4, P83105
T9 sequence (P83105 378-476, limits assumed, looked up): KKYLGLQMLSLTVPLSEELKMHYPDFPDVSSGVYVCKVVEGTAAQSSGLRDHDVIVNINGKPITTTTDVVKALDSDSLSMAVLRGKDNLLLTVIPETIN

[17] = biological target: T10, APBA2_1, Q99767
T10 sequence (Q99767 563-664, limits assumed, looked up): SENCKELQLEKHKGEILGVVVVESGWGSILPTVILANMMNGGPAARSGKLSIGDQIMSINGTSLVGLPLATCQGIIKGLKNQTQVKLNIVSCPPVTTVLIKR

[18] = biological target: T11, SNTG1, Q9NSN8
T11 sequence (Q9NSN8 52-150, limits assumed, looked up): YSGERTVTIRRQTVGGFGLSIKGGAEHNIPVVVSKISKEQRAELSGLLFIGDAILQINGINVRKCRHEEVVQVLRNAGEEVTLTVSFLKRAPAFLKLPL

[19] = biological target: DLG5_1, Q8TDM6
Chain of DLG5_1, Q8TDM6 (Q8TDM6 617-713): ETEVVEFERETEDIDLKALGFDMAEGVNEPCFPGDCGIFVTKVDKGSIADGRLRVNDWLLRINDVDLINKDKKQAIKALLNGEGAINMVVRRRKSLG

[20] = biological target: MAST2, Q6P0Q8
Chain of MAST2, Q6P0Q8 (Q6P0Q8 1099-1202): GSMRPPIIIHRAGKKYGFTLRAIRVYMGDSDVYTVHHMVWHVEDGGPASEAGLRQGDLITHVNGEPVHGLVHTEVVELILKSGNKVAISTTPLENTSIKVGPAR

[21] = biological target: T12, ARHGEF11, O15085
T12 sequence (O15085 42-136, limits assumed, looked up): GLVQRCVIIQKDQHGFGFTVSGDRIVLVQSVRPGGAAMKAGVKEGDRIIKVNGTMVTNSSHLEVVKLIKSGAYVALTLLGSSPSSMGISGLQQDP

[22] = biological target: GRIP2_3, Q9C0E4
Chain of GRIP2_3, Q9C0E4 (Q9C0E4 238-339): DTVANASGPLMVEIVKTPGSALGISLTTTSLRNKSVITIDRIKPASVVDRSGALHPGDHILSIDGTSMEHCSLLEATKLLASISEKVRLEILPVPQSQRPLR

[23] = biological target: T13, GRIP1_7, Q9Y3R0
T13 sequence (Q9Y3R0 999-1096, limits assumed, looked up): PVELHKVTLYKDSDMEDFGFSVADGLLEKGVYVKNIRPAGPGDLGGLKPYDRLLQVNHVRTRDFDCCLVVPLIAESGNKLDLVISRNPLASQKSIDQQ

[24] = biological target: T14, TIAM2, Q8IVF5
T14 sequence (Q8IVF5 885-986, limits assumed, looked up): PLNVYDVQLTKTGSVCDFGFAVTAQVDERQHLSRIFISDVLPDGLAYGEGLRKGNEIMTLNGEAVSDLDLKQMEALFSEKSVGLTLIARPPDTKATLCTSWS

Binder: SKENVQETQI [LRRC4B, Q9NT99]
- pKd [1]: 3.48
- pKd [2]: below the threshold
- pKd [3]: below the threshold
- pKd [4]: below the threshold
- pKd [5]: below the threshold
- pKd [6]: 4.93
- pKd [7]: below the threshold
- pKd [8]: below the threshold
- pKd [9]: 5.39
- pKd [10]: below the threshold
- pKd [11]: below the threshold
- pKd [12]: 3.99
- pKd [13]: below the threshold
- pKd [14]: 4.4
- pKd [15]: below the threshold
- pKd [16]: below the threshold
- pKd [17]: below the threshold
- pKd [18]: 4.94
- pKd [19]: below the threshold
- pKd [20]: 5.56
- pKd [21]: below the threshold
- pKd [22]: below the threshold
- pKd [23]: below the threshold
- pKd [24]: 4.1

Binder: EVNETDDTKM [KCNJ1, P48048]
- pKd [1]: below the threshold
- pKd [2]: below the threshold
- pKd [3]: below the threshold
- pKd [4]: below the threshold
- pKd [5]: below the threshold
- pKd [6]: below the threshold
- pKd [7]: below the threshold
- pKd [8]: below the threshold
- pKd [9]: 4.38
- pKd [10]: below the threshold
- pKd [11]: below the threshold
- pKd [12]: below the threshold
- pKd [13]: below the threshold
- pKd [14]: 3.75
- pKd [15]: below the threshold
- pKd [16]: 4.14
- pKd [17]: below the threshold
- pKd [18]: 3.54
- pKd [19]: below the threshold
- pKd [20]: 4.83
- pKd [21]: 3.7
- pKd [22]: 3.69
- pKd [23]: below the threshold
- pKd [24]: below the threshold

Binder: LSEFKAMDSI [CTNNA1, P35221]
- pKd [1]: below the threshold
- pKd [2]: below the threshold
- pKd [3]: below the threshold
- pKd [4]: below the threshold
- pKd [5]: below the threshold
- pKd [6]: below the threshold
- pKd [7]: below the threshold
- pKd [8]: below the threshold
- pKd [9]: below the threshold
- pKd [10]: below the threshold
- pKd [11]: below the threshold
- pKd [12]: below the threshold
- pKd [13]: below the threshold
- pKd [14]: below the threshold
- pKd [15]: below the threshold
- pKd [16]: 3.85
- pKd [17]: below the threshold
- pKd [18]: below the threshold
- pKd [19]: below the threshold
- pKd [20]: below the threshold
- pKd [21]: below the threshold
- pKd [22]: below the threshold
- pKd [23]: below the threshold
- pKd [24]: 3.48

Binder: VNKSKLLTDV [KCNA1, Q09470]
- pKd [1]: below the threshold
- pKd [2]: below the threshold
- pKd [3]: below the threshold
- pKd [4]: below the threshold
- pKd [5]: below the threshold
- pKd [6]: 3.87
- pKd [7]: below the threshold
- pKd [8]: below the threshold
- pKd [9]: 4.36
- pKd [10]: below the threshold
- pKd [11]: below the threshold
- pKd [12]: below the threshold
- pKd [13]: 3.56
- pKd [14]: 4.56
- pKd [15]: below the threshold
- pKd [16]: below the threshold
- pKd [17]: below the threshold
- pKd [18]: below the threshold
- pKd [19]: below the threshold
- pKd [20]: 5.07
- pKd [21]: 4.29
- pKd [22]: below the threshold
- pKd [23]: below the threshold
- pKd [24]: 3.95

Binder: TPPAAKKSRI [BAZ1A, Q9NRL2]
- pKd [1]: below the threshold
- pKd [2]: below the threshold
- pKd [3]: below the threshold
- pKd [4]: below the threshold
- pKd [5]: below the threshold
- pKd [6]: below the threshold
- pKd [7]: below the threshold
- pKd [8]: below the threshold
- pKd [9]: 4.52
- pKd [10]: below the threshold
- pKd [11]: below the threshold
- pKd [12]: 4.06
- pKd [13]: below the threshold
- pKd [14]: 3.66
- pKd [15]: below the threshold
- pKd [16]: below the threshold
- pKd [17]: below the threshold
- pKd [18]: below the threshold
- pKd [19]: 3.57
- pKd [20]: below the threshold
- pKd [21]: 3.92
- pKd [22]: below the threshold
- pKd [23]: below the threshold
- pKd [24]: below the threshold

Binder: NLSIEKETKL [ASNSD1, Q9NWL6]
- pKd [1]: 3.56
- pKd [2]: below the threshold
- pKd [3]: below the threshold
- pKd [4]: below the threshold
- pKd [5]: below the threshold
- pKd [6]: 4.3
- pKd [7]: below the threshold
- pKd [8]: 4.67
- pKd [9]: 4.68
- pKd [10]: below the threshold
- pKd [11]: below the threshold
- pKd [12]: below the threshold
- pKd [13]: below the threshold
- pKd [14]: 4.43
- pKd [15]: below the threshold
- pKd [16]: below the threshold
- pKd [17]: below the threshold
- pKd [18]: 4
- pKd [19]: below the threshold
- pKd [20]: 5.62
- pKd [21]: below the threshold
- pKd [22]: below the threshold
- pKd [23]: below the threshold
- pKd [24]: 3.94
